Assay: soluble on expression in E. coli; label from the status in PepcDB or PDB records

Sequence | soluble on expression in E. coli
MTTYTTNDFSEIVFGRKSVRVYDETHKISHEEMLTMIQEATTAPSSVNMQPWRFVVVESEAGKEKLKPLIRFNTRQNETSSAMLLIFGDLNCHERGEEIYNQAYASGKMPKEVRDQQLAAIIPHYESLSREQMNDIVKIDASLAAMQFMLVARAHGYETNPIGGFEAEKLAETFGLDQERYVPVMILSVGKGMETGYESVRLAPEKITTFE | not soluble
MFNVDGECVVFTSGGTESNNWVIEGTIRNAKKVSKLPHIITTNIEHPSILEPLKRREEDGEISVTYVSINPLTGFVTSQSILDALTSDTCLVTIMLANNDTGVLQPVSEIFQAIREKLKTNVPFLHSDVAQAAGKIPVNVRSLSADAVTVVGHKFYGPRSGALIFNPKSKRIPPMLLGGNQESGWRSGTENTPMIVGLGEAAKVYNEGFLNIESILRQNRDYFEELLLKRLRNSHIIHFIGSQRLPNTSSVAFLDYPSHGCDLLEKCQTFNASTGAACHKNECSPILKACGIPFAVASKTVRISFGRSTKIAEIETVVDELVQLCSPS | not soluble
PQYIGGISNTFKYKNWEFSCFVTMQAGNKIRMNPSFDPAFADLNVFSKEYYNRWLNPGDERKTNIPVIPSQDLIRNIGKENIEKAYNTYNYSQNRVADGSFVRMKNISLGYRLPQRFLSHLKIKQMNVKVNVTNPFLIYSDRKLNGQDPEFYRSGGVSLPTPKQYTMTLNVEF | not soluble
MGHHHHHHSHMANSMANSMIRNKVMEQSFIEYSLGKDASSAVLWVYPARKPRGKAIIMCPGGGFNQIASDHEGRDFAAWFNNQGITYAVLNYRMPHGDVEVIREDIREAIRLIRRQSAEWGIHQLGVMGASIGGYIAATAATLYTGTDRPDFQVLLYPVISMTDRLTHWPSRERMLGETISEGLKETLSLELHVTADTPPTFIVLAEDDQAVSPLNSIVYYTALLKHGVSAGLHIYPEGGHSFGFRDSFIYKELWTDELQKWLLTF | soluble
MEVPSLFTNFFAVNNPDSPPARQKTKLRELEHRFWQEHLPGDDDDHSTAISSLAIVTGLTKAQVSRISIAFATLADLPELKALQQKLYHLDLSRLITISNELAGINPDNLAGADAILTEYLTATSPNQILPSPASIGRKIKEIRDLLDDARATGSRGTQDDSSFGVTFSPDGTAEIGASVDAVDGHIINDAVTQHAKKNDLTYGEAFSDILRNNIQVKVVLNLYTAKDLANAPVWASGIGWLDAKTGTFWSEKANKEQDMDAAAKISTDKHDPPPALRDALIGRDGTCRFPGCSVPALKTQADHRIPYEEGGETCLGGIGCLCQHHHNMKTDGRVTYLLDPFSGIIVWLMGDGTWAVSEPNGPLNPKNARWAQTVAQHRARHHKRWVKEDAKLEHHHHHH | not soluble
MTTVSNIHHASKPRLNTLLVTARDSPYDTTLPARTPVDFCRPGSQWRVMDIDLVLAPVDGSDQSERAAEYAIAVAERYDADLHLLFVIDERLHQDIDSGDVSATAIAEEHQAFTESIRDRFRDAHDGVFETSSATAFSETRLMQTPGSVVLDVAEDLDSDFIVVPREEGSEEAVGRAAIYVIEYASQPVLTV | not soluble
MGSDKIHHHHHHMISEISHDVIWDLYEGEDYRDKILAEKWDVVFGEKILEMEDTLFVQSLRELELALKYAAARKDLETIKARFNLLLYTPELQGAKIKEILFQVLKFYNSFSIFALVSEKGVHRHAYVDFVTGGNYLSLIYHEDLPLNINSHTVFIDDVPPDFSPAGLGGRKIILGMDSTPKNNIPFVEIPPLRERKMDIPYMLDGVIKSLQFQGKTVKIDDDLTKLLIEYHWPGNTQEFLEKVYEIITLENPVDQAMKIASGIDEIKGLNLKEFVDSLVEFVEKKVIKKALEENEGNRKKVCEVLNMNYKTLSYKMKKYGLT | not soluble
MSILNDYKRKTEGSVFWAQRARSVMPDGVTADTRAFDPHGLFISDAQGVHKTDVDGNVYLDFFGGHGALVLGHGHPRVNAAIAEALSHGVQYAASHPLEVRWAERIVAAFPSIRKLRFTGSGTETTLLALRVARAFTGRRMILRFEGHYHGWHDFSASGYNSHFDGQPAPGVLPETTANTLLIRPDDIEGMREVFANHGSDIAAFIAEPVGSHFGVTPVSDSFLREGAELARQYGALFILDEVISGFRVGNHGMQALLDVQPDLTCLAKASAGGLPGGILGGREDVMGVLSRGSDRKVLHQGTFTGNPITAAAAIAAIDTILEDDVCAKINDLGQFAREAMNHLFARKGLNWLAYGRFSGFHLMPGLPPNTTDTGSITRAEVARPDVKMIAAMRMALILEGVDIGGRGSVFLSAQHEREHVEHLVTTFDRVLDRLADENLLSWQGTNLSGNQS | soluble
MLGAMSLRLSEFRETNLLDKILFGVLSPHEIRQLAKVTVVRGDLYEADGTPVSGGLRDPHFGAIEPGERCPVCGNSREECPGHFGKIELARPVLIPHYTDYVYKILQATCRVCGRITLPEEKIKYYRLIFRRLRGKWPQLAKTFATMVVKEAAQATQCPHCGKPQYKVVYIRPFHFYEKKPEGDVKLTPSEIRERLEKTGSEIEILGVHPERSRPEWMVATVLIVPPLAVRPSITLETGLRSEDDLTHALAEIVRQNEKLRNVIVTNAPETLIEENWMVLQEMVAAYIDNELPGARRLTHRRKRYLKTLAQRLKGKDGRIRGNLSGKRVNYSARTVISPDPYISINEVGVPEEIAKTLTIAMRVTPYNLEEARRYVLNGPDKWPGALFVYKASERKKYDLRFFKDYEKLAESLEPGDVVERHLINGDIVLFNRQPSLHRMSIMGHIVRVMPGKTFRLNLLVCPPYNADFDGDEMNLHVPRLEEAQAEAREIMLVEKHILTPRYGGPIIGGRQDYVSGAYLLTVKTRLFTKEEVERLLSVAGYKGDLPEPAILKPEPLWTGKQLASIFLPEDLSFKGKSKTNAGDLACSDELCLHDSYIVITNGKLLEGVLDKKAIGAEEPNNLLHIIALEYGNSKARQLLDSFYRMFIRMLELRGLTISLHDIDLPDRAKQEIEELIREYKGRVYSIIEEYRKGTLEPIPGRSLEESLEIKIMEVLDELRKRVQEVASNNLDPFNDVFVMARTGARGSDVNISQMAAMLGQQAVRGRRIRRGLRNRVLAHFKENDIEPEAWGFVRSSFRKGLRPTEVFFHAAAGREGLVDTAVKTSQSGYMQRRLINALQDIVVTYDGTVRDLYGNLIQLKYGEDGVDPMKTYHGKPVDVKRIIQRVKASKAETV | soluble
PSPREQLMESIRKGKELKQSRPPLKKASDRQLGPPRMCEPSPREQLMESIRKGKELKQSRPPLKKASDRQLGPPRMCEPSPREQLMESIRKGKELKQA | soluble
GSHSMKYFYTSMSRPGRGQPRFIAVGYVDDTQFVRFDSDAASQRMEPRAPWVEQEGPEYWDRETRNMKTETQNAPVNLRTLLRYYNQSEAGSHTLQRMVGCDLGPDGRLLRGYEQYAYDGKDYIALNEDLRSWTAADVAAQNTQRKWEAADVAESMRAYLEGQCVEWLPRYLEKGKETLQRTDPPKTHVTHHPVSDHEATLRCWALGFYPAEITLTWQRDGEDQTQDTELVETRPAGDGTFQKWAAVVVPSGEEQRYTCHVQHEGLPKPHTLKWEPHH | soluble
MNYLFKNGRYMNEEGKIVATDLLVQDGKIAKVAENITADNAEVIDVNGKLIAPGLVDVHVHLREPGGEHKETIETGTLAAAKGGFTTICAMPNTRPVPDCREHMEDLQNRIKEKAHVNVLPYGAITVRQAGSEMTDFETLKELGAFAFTDDGVGVQDASMMLAAMKRAAKLNMAVVAHCEENTLINKGCVHEGKFSEKHGLNGIPSVCESVHIARDILLAEAADCHYHVCHVSTKGSVRVIRDAKRAGIKVTAEVTPHHLVLCEDDIPSADPNFKMNPPLRGKEDHEALIEGLLDGTIDMIATDHAPHTAEEKAQGIERAPFGITGFETAFPLLYTNLVKKGIITLEQLIQFLTEKPADTFGLEAGRLKEGRTADITIIDLEQEEEIDPTTFLSKGKNTPFAGWKCQGWPVMTIVGGKIAWQKESALV | not soluble
MARRILVVEAEAPIREMVCFVLEQNGFQPVEAEDYDSAVNQLNEPWPDLILLEWMLPGGSGIQFIKHLKRESMTRDIPVVMLTARGEEEDRVRGLETGADDYITKPFSPKELVARIKAVMRRISPMA | soluble
MVSLRELRGGLMSNKYCQALVELRNKPAHELKEVGDQWRTPDNIFWGINTLFGPFVLDLFTDGDNAKCAAYYTAEDNALAHDWSERLAELKGAAFGNPPYPWLEHHHHHH | not soluble
MGSDKIHHHHHHMSMNHIRPWRNIERRKSRQIHVGNVPVGGDAPIAVQTMTNTLTTDIKGTIAQVQAAADAGADIVRVSVPDEASARALKEIVRESPVPIVADIHFHYKRGIEAAEAGAACLRINPGNIGDEKRVAEVIKAARDHNCSIRIGVNAGSLEKHLLEKYGEPCPDAMVESGLDHIKILQDHDFHEFKISVKASDVFMSAAAYQMLADATDAPIHLGITEAGGLMSGTIKSAIGLGQLLWMGIGDTLRVSLSADPVEEVKVGFEILKSLGLRHRGVNIISCPSCARQGFDVIKTVETLEERLEHIKTPMSLSIIGCVVNGPGEALMTDVGFTGGGAGSGMVYLAGKASHKMSNDQMIDHIVEEVEKKAAALDAQAAEDMKAAE | not soluble
MLITKNQAEKWFDNSLGKQFNPDLFYGFQCYDYANMFFMIATGERLQGLYAYNIPFDNKARIEKYGQIIKNYDSFLPQKLDIVVFPSKYGGGAGHVEIVESANLNTFTSFGQNWNGKGWTNGVAQPGWGPETVTRHVHYYDDPMYFIRLNFPDKVSVGDKAKSVIKQATAKKQAVIKPKKIMLVAGHGYNDPGAVGNGTNERDFIRKYITPNIAKYLRHAGHEVALYGGSSQSQDMYQDTAYGVNVGNNKDYGLYWVKSQGYDIVLEIHLDAAGESASGGHVIISSQFNADTIDKSIQDVIKNNLGQIRGVTPRNDLLNVNVSAEININYRLSELGFITNKKDMDWIKKNYDLYSKLIAGAIHGKPIGGLVAGNVKTSAKNQKNPPVPAGYTPDKNNVPYKKETGYYTVANVKGNNVRDGYSTNSRITGVLPNNATIKYDGAYCINGYRWITYIANSGQRRYIATGEVDKAGNRISSFGKFSAVLEHHHHHH | not soluble
MGSDKIHHHHHHMSRAITRAQLDKLVRSITKFYPQKYADKSWDNTGLLIDCSTAQVTTADANAKTKVLLTVDLTKSVAQEAVDANCNVIVAYHPFIFPSWNRLSPHTNPQHETAIKLIQYGISVYCPHTAVDAARGGVNDWLVRGLNNGENVAKSYALETVSGETDDLIGYGRFVEFNKDISLEQIVKNVKRVLRVPYVQVASLAAPSAWNQLKIKKVAVCAGSGSGVFKQLKEDVDLYYTGEMSHHEVLKWKEMGKTVIVCNHSNTERGFLQDVMKGLLQDEGHEVVVSKMDCDPLTVA | not soluble
MKDILIIAGPTAVGKTDISIKIAQKMNGEIISADSMQIYKYMDIGSAKVTKEEMKGIKHHLIDVVDPSEEFSVASFKKMAQNAIDDITSRKKYPIIVGGTGLYINSLICNYDFTGAYKDEAYRESLQAIAKDKGKEYLHEKLKNIDIDSYKKLYPNDLKRVIRALEVYKITGKTISELNSNVDLYDIPYNIHYFILNMDRQKLYERINLRVDIMLRNGLVDEVIKLRDMGYNSNMQSMKGIGYKEILSYLEGCITLEEAVELIKKGSRHYAKRQLTWFRKDERAVWINKDIYKNDDDIVFKILSSIEEILEHHHHHH | not soluble
MNLHTKTWVQRLPVPIDVAWDFFSQPGNLARITPPEMMLKAEGGNAGTAIYEGMKLNFVLYPFMMIPVRWTTEIMKVSKPDFFEDRQLSGPYEQWYHRHLFRDIEGGTEMTDIVEYALPFDLFGEVVEALIVGPRLDEVFEYRRCRVAEILGEMASETRLEHHHHHH | soluble
MRITIAGKIGSGKSTVSSELSRITGYTVYSSGTFFRETARKMNMSIEDFNVYSESHPEADYYTDETQKAFMQANDNIIVEGRLAGWISYLNGINAFRIFLYATYYTRLVRFAGRENIDIDSARDLMEKREKSEKERYRKLYGIDVDDLSIYDIVVNTEFMKPPEIAVYIANRIDEMSRKDIFTPRILR | not soluble

Reference: the DeepSol protein solubility set
